{"source": "paper PMC4260917", "about": "“Defective FANCI Binding by a Fanconi Anemia-Related FANCD2 Mutant” (PLoS ONE, 2014)", "biological_target": "T1, chicken FANCD2, wild type, purified recombinant (chicken, UniProt Q68Y81 1-1439)", "T1 construct": "FANCD2, chicken (Gallus gallus); also called cFANCD2; WT cFANCD2; source: E. coli BL21(DE3) codon(+)RIL, purified", "T1 sequence (Q68Y81 whole entry)": "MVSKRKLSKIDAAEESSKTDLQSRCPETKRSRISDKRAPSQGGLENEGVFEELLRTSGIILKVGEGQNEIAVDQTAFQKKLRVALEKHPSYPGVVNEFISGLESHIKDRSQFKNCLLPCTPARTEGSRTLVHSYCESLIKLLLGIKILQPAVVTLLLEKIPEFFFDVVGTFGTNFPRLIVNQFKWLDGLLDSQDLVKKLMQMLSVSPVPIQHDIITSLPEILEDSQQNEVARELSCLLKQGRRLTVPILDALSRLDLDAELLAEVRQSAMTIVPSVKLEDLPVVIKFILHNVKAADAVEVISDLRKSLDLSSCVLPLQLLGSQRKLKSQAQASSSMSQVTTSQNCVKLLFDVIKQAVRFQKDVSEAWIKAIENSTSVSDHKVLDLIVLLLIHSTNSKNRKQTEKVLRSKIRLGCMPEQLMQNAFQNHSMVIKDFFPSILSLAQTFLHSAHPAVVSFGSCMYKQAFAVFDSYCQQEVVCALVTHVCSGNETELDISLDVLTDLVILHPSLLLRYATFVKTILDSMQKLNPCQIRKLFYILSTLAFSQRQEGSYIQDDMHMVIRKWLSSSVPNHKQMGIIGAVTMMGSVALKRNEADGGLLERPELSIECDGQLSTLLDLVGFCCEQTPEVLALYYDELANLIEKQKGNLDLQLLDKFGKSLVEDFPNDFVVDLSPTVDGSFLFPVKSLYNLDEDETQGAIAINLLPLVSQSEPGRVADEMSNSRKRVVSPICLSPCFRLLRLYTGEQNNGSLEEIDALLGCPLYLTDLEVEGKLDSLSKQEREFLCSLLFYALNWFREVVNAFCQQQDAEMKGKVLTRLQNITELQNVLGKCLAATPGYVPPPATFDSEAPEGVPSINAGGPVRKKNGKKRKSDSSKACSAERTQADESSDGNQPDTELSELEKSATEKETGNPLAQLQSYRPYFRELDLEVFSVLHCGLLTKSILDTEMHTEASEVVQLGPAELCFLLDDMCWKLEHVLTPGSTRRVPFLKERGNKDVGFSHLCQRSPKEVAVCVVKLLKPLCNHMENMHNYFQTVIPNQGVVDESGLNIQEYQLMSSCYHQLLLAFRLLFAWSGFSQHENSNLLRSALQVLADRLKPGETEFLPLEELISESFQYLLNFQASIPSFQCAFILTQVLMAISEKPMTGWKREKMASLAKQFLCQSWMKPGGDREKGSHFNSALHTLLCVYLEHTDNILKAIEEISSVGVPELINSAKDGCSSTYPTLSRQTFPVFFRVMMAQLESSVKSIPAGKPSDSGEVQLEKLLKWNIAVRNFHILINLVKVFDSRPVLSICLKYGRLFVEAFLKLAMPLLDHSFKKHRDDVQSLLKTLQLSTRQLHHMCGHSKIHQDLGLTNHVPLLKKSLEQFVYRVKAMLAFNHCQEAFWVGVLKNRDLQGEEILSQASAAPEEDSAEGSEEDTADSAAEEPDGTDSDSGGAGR", "experiment": "SEC; Superdex 200 10/300 GL; equimolar mixture of cFANCD2 and cFANCI; 20 mM Tris-HCl (pH 8.0), 10% glycerol, 200 mM NaCl, 5 mM 2-mercaptoethanol; fractions on 7% SDS-PAGE, silver staining", "conditions": "both partners purified"}
{"binder": "chicken FANCI, wild type, purified recombinant (natural protein, UniProt B0I564 1-1338, looked up, FANCI, chicken (Gallus gallus); also called cFANCI; WT cFANCI; source: E. coli BL21(DE3) codon(+)RIL, purified) MAQRILQLAAEGSPERLQEALQGLTEGELGDMVTRQALRGRETAALLKGIFKGSPCSQQSGVLRRLQVYKHCVSLVESGDLHVGKVSEIIGLLMLEARQLPGHALAELATLFVEVIKRGSLSNGKSLELFSTVLTALSNSKESLAYGKGELNGEEFKKQLINTLCSSKWDPQCVIHLANMFRDIPLSGEELQFVVEKVLRMFSKLDLQEIPPLVYQLLLLSAKGSKKTVLEGIISFFNQLDKRQKEEQRVPQSADLEVATVPLDQLRHVEGTVILHIVSAINLDQDIGEELIKHLKTEQQKDPGKALCPFSVSLLLSTAVKHRLQEQIFDFLKTSITRSCKDLQILQASKFLQDLCPQQYDVTAVILEVVKNSAFGWDHVTQGLVDLGFSLMESYEPKKSFGGKAAETNLGLSKMPAQQACKLGASILLETFKVHEPIRSDILEQVLNRVLTKAASPVSHFIDLLSNIVVSAPLVLQNSSSRVTETFDNLSFLPIDTVQGLLRAVQPLLKVSMSVRDSLILVLQKAIFSRQLDARKAAVAGFLLLLRNFKILGSLTSSQCSQAIGATQVQADVHACYNSAANEAFCLEILGSLRRCLSQQADVRLMLYEGFYDVLRRNSQLASSIMETLLSQIKQYYLPQQDLLPPLKLEGCIMAQGDQIFLQEPLAHLLCCIQHCLAWYKSTVHLCKGAEDEEEEEDVGFEQNFEEMLESVTRRMIKSELEDFELDKSADFSPSSGVGVKNNIYAIQVMGICEVLIEYNFKIGNFSKNKFEDVLGLFTCYNKLSEILKEKAGKNKSTLGNRIARSFLSMGFVSTLLTALFRDNAQSHEESLAVLRSSTEFMRYAVSVALQKVQQLEEMGQTDGPDGQNPEKMFQNLCKITRVLLWRYTSIPTAVEESGKKKGKSISLLCLEGLLRIFNTMQQLYAARIPQFLQALDITDGDAEEADINVTEKAAFQIRQFQRSLVNQLSSAEDDFNSKETQLLITILSTLSKLLDPGSQQFLQFLTWTVKICKENALEDLSCCKGLLTLLFSLHVLYKSPVSLLRELAQDIHACLGDIDQDVEIESRSHFAIVNVKTAAPTVCLLVLGQADKVLEEVDWLIKRLTILGSDTSEDSTQASNQTQALEKGVILQLGTLLTVFHELVQTALPAGSCVDSLLRSLSKTYAILTSLIKHYIQACRSTSNTVPGRLEKLVKLSGSHLTPQCYSFITYVQNIHSESLSFAEEKKKKKKEDETAVVSTVMAKVLRDTKPIPNLIFAIEQYEKFLIHLSKKSKVNLMQYMKLSTSRDFRINASMLDSVLQEQNTEDAENEPDNNQSGTAEQPDENQEPQKKRRRKK", "values": [{"measurement": "binding result", "value": "binds"}]}
